According to the RNAGym collection of RNA variant scans (doi:10.1093/nar/gkz1192):

B1: CPEB3 Ribozyme (parent)
chain: UAACAGGGGGCCACAGCAGAAGCGUUCACGUCGCAGCCCCUGUCAGAUUCUGGUGAAUCUGCGAAUUCUGCUGUAUAUCUC

Variants of: B1
Test: self-cleavage, relative activity (ratio to wild type); higher = more cleavage; in vitro, sequencing
In short: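 For each CPEB3 ribozyme variant, relative activity is its cleaved/total read fraction divided by the unmutated ribozyme's. Barcoded error-prone PCR libraries were transcribed by T7 RNA polymerase (5 hours, 37°C) and held in DNase I for 15 min before an EDTA stop, with cleavage occurring throughout. Template-switching reverse transcription and Illumina sequencing were used to read the RNAs. A 5-read minimum applied, and results are the mean of three batches.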
Variant UAACAGAGGGCCACAGCAGAAGCGUUCACGUCGCAGCCCCUGUCAGAUUCUGGUGAAUCUGCGAAUUCUGCUGAAUAUCUC has a self-cleavage of 0.09. In the case of UAACAGAGGGCCACAGCAGAAGCGUUCACGUCGCAGCCCCUGUCAGAUUCUGGUGAAUCUGCGAAUUCUGCUGCAUAUCUC, the self-cleavage is reported as 0.5. Variant UAACAGAGGGCCACAGCAGAAGCGUUCACGUCGCAGCCCCUGUCAGAUUCUGGUGAAUCUGUGAAUUCUGCUGUAUAUCUC has a self-cleavage of 0.22. With UAACAGAGGGCCACAGCAGAAGCGUUCACGUCGCAGCCCCUGUCAGAUUCUGGUGAAUCUGCGAAUACUGCUGUAUAUCUC the self-cleavage was 0.17. Variant UAACAGAGGGCCACAGCAGAAGCGUUCACGUCGCAGCCCCUGUCAGAUUCUGGUGAAUCUGCGAAUCCUGCUGUAUAUCUC has a self-cleavage of 0.25. Variant UAACAGAGGGCCACAGCAGAAGCGUUCACGUCGCAGCCCAUGUCAGAUUCUGGUGAAUCUGCGAAUUCUGCUGUAUAUCUC has a self-cleavage of 0.18. In the case of UAACAGAGGGCCACAGCAGAAGCGUUCACGUCGCAGCCCUUGUCAGAUUCUGGUGAAUCUGCGAAUUCUGCUGUAUAUCUC, the self-cleavage is reported as 0.3. UAACAGCGGGCCACAGCAGAAGCGUUCACGUCGCAGCCCCUGUCAGAUUCUGGUGGAUCUGCGAAUUCUGCUGUAUAUCUC gave a self-cleavage of 0.23. UAACAGAGGGCCACAGCAGAAGCGUUCACGUCGCAGCCCCUGUCAGAUUCUGGUGAAUCUGCGAAUUCUGCUAUAUAUCUC gave a self-cleavage of 0.48. With UAACAGAGGGCCACAGCAGAAGCGUUCACGUCUCAGCCCCUGUCAGAUUCUGGUGAAUCUGCGAAUUCUGCUGUAUAUCUC the self-cleavage was 0.07. For UAACAGAGGGCCACAGCAGAAGCGUUCACGUCGCAGCCCCUGUCAGAUUCUGGUGAAUCUGCGAAUUCUCCUGUAUAUCUC, the self-cleavage was 0.06. With UAACAGAGGGCCACAGCAGAAGCGUUCACGUCGCAGCCCCUGUCAGAUUCUGGUGAAUCUGCGAAUUCUGCUGUAUACCUC the self-cleavage was 0.15. With UAACAGAGGGCCACAGCAGAAGCGUUCACGUCGCAGCCCCUGUCAGAUUCUGGUGAAUCUGCGAAUUCUGCUGUAUAGCUC the self-cleavage was 0.08. In the case of UAACAGAGGGCCACAGCAGAAGCGUUCACGUCGCAGCCCCUGUCAGAUUCUGGUGAAUCUGCGAACUCUGCUGUAUAUCUC, the self-cleavage is reported as 0.13. Variant UAACAGAGGGCCACAGCAGAAGCGUUCACGUCGCAGCCCCUGUCAGAUUCUGGUAAAUCUGCGAAUUCUGCUGUAUAUCUC has a self-cleavage of 0.15. UAACAGAGGGCCACAGCAGAAGCGUUCACGUCGCAGCCCCUGUCAGAUUCUGGUUAAUCUGCGAAUUCUGCUGUAUAUCUC showed a self-cleavage of 0.2. In the case of UAACAGAGGGCCACAGCAGAAGCGUUCACGUCGCAGCCCCUGUCAGAAUCUGGUGAAUCUGCGAAUUCUGCUGUAUAUCUC, the self-cleavage is reported as 0.31. Work on UAACAGAGGGCCACAGCAGAAGCGUUCACGUCGCAGCCCCUGUCAGACUCUGGUGAAUCUGCGAAUUCUGCUGUAUAUCUC yielded a self-cleavage of 0.16. UAACAGAGGGCCACAGCAGAAGCGUUCACGUCGCAGCCCCUGUCAGAUUCUGGUGAAUCCGCGAAUUCUGCUGUAUAUCUC showed a self-cleavage of 0.11. In the case of UAACAGAGGGCCACAGCAGAAGCGUUCACGUCGCAGCCCCUGUCAGAUUCUGGUGAAUCAGCGAAUUCUGCUGUAUAUCUC, the self-cleavage is reported as 0.37. With UAACAGCGGGCCACAGCAGAAGCGUUCACGUCGCAGCCCCUGUCAGAUUCUGGUGAAUCUGCGAAUUCUGCUGUAUAUCUC the self-cleavage was 0.29. For UAACAGCGGGCCACAGCAGAAGCGUUCACGUCGCAGCCCCUGUCGGAUUCUGGUGAAUCUGCGAAUUCUGCUGUAUAUCUC, the self-cleavage was 0.26. Work on UAACAGAGGGCCACAGCAGAAGCGUUCACGUCGCAGCCCCUGUCAUAUUCUGGUGAAUCUGCGAAUUCUGCUGUAUAUCUC yielded a self-cleavage of 0.39. For UAACAGAGGGCCACAGCAGAAGCGUUCACGUCGCAGCCCCUGUCAAAUUCUGGUGAAUCUGCGAAUUCUGCUGUAUAUCUC, the self-cleavage was 0.07. Work on UAACAGCGGGCCACAGCAGUAGCGUUCACGUCGCAGCCCCUGUCAGAUUCUGGUGAAUCUGCGAAUUCUGCUGUAUAUCUC yielded a self-cleavage of 0.22. UAACAGAGGGCCACAGCAGAAGCGUUCACGUCGCAGCCCCUGUCAGAUCCUGGUGAAUCUGCGAAUUCUGCUGUAUAUCUC showed a self-cleavage of 0.2. For UAACAGCGGGCCACUGCAGAAGCGUUCACGUCGCAGCCCCUGUCAGAUUCUGGUGAAUCUGCGAAUUCUGCUGUAUAUCUC, the self-cleavage was 0.18. For UAACAGCGGGCCACGGCAGAAGCGUUCACGUCGCAGCCCCUGUCAGAUUCUGGUGAAUCUGCGAAUUCUGCUGUAUAUCUC, the self-cleavage was 0.21. UAACAGAGGGCCACAGCAGAAGCGUACACGUCGCAGCCCCUGUCAGAUUCUGGUGAAUCUGCGAAUUCUGCUGUAUAUCUC showed a self-cleavage of 0.28. UAACAGAGGGCCACAGCAGAAGCGUGCACGUCGCAGCCCCUGUCAGAUUCUGGUGAAUCUGCGAAUUCUGCUGUAUAUCUC showed a self-cleavage of 0.07. UAACAGAGGGCCACAGCAGAAGCGUCCACGUCGCAGCCCCUGUCAGAUUCUGGUGAAUCUGCGAAUUCUGCUGUAUAUCUC showed a self-cleavage of 0.25. Variant UAACAGAGGGCCACACCAGAAGCGUUCACGUCGCAGCCCCUGUCAGAUUCUGGUGAAUCUGCGAAUUCUGCUGUAUAUCUC has a self-cleavage of 0.23. Work on UAACAGAGGGCCACAGCAGAAGCGUUCACGGCGCAGCCCCUGUCAGAUUCUGGUGAAUCUGCGAAUUCUGCUGUAUAUCUC yielded a self-cleavage of 0.14. With UAACAGAGGGCCACAGCAGAAGCGUUCACGCCGCAGCCCCUGUCAGAUUCUGGUGAAUCUGCGAAUUCUGCUGUAUAUCUC the self-cleavage was 0.25.
